In article PMC5296606, “A Ferredoxin- and F420H2-Dependent, Electron-Bifurcating, Heterodisulfide Reductase with Homologs in the Domains Bacteria and Archaea” (mBio, 2017):

Columns and labels:
Type in all cases: biochemical, Methanosarcina acetivorans
[1] = substrate: C[C@@H](OP(=O)(O)O)[C@H](NC(=O)CCCCCCS)C(=O)O; assay: reverse heterodisulfide reductase assay; conditions: co-substrate HSCoM, 21 °C
[2] = substrate: O=S(=O)(O)CCS; assay: reverse heterodisulfide reductase assay; conditions: co-substrate HSCoB, 21 °C
[3] = substrate: C[C@@H](OP(=O)(O)O)[C@H](NC(=O)CCCCCCSSCCS(=O)(=O)O)C(=O)O; assay: forward heterodisulfide reductase assay with reduced methyl viologen; conditions: reduced methyl viologen as electron donor, 21 °C, HdrA2 + HdrB2C2, no ferredoxin
Source text: forward heterodisulfide reductase assay with reduced methyl viologen on HdrA2B2C2

B1: HdrB2C2 (Methanosarcina acetivorans C2A) (protein)
chain: MAKLSLFRGCIVPNRYPGIEKATKLCLQKLEVDAVDLPGASCCPAPGVFKSFDKATWLALASRNIVLSERMGRDILTVCNGCYGSLADANIELKNDPEMKACTNSCLKEIGMEYKGTAEVRHIIEFLYKELGPEKLKSFITTPLDLKVALHYGCHLIKPSKERNLGETEAPVFFDELVEATGAKSVDYTDKMMCCGAGGGVRSGHAAESLEMLEHKLACIRNAGVDCIVNACPFCHLQFDRGQLAVNEKFGTDYSIPVLHYSQLLGLALGFSPDELGIEQNAIQNIEFLAKIYEISAGLR
notes: with Heterodisulfide reductase subunit C2 (CoB--CoM heterodisulfide reductase iron-sulfur subunit C 2)
Question: How did the Km ([1]; no HdrA2) turn out when B1 was run?
Answer: 1200 ± 200 µM

Question: And the Km ([2]; no HdrA2)?
Answer: 1400 ± 200 µM

Question: What about the Vmax ([2]; no HdrA2) of the same protein?
Answer: 0.6 µmol/min/mg

B2: HdrA2B2C2 (Methanosarcina acetivorans C2A) (protein)
chain: MAKLSLFRGCIVPNRYPGIEKATKLCLQKLEVDAVDLPGASCCPAPGVFKSFDKATWLALASRNIVLSERMGRDILTVCNGCYGSLADANIELKNDPEMKACTNSCLKEIGMEYKGTAEVRHIIEFLYKELGPEKLKSFITTPLDLKVALHYGCHLIKPSKERNLGETEAPVFFDELVEATGAKSVDYTDKMMCCGAGGGVRSGHAAESLEMLEHKLACIRNAGVDCIVNACPFCHLQFDRGQLAVNEKFGTDYSIPVLHYSQLLGLALGFSPDELGIEQNAIQNIEFLAKIYEISAGLR
notes: complex reconstituted by mixing recombinant HdrA2 (C-terminal His6) with copurified HdrB2C2 (His6 on HdrB2); with Heterodisulfide reductase subunit C2 (CoB--CoM heterodisulfide reductase iron-sulfur subunit C 2); H(2)/F420-type heterodisulfide reductase subunit A2 (CoB--CoM heterodisulfide reductase iron-sulfur subunit A 2; HdrA-MvhD fusion)
Question: Which results are given for B2?
Answer: Km [3]: 50 ± 10 µM; Vmax [3]: 2.2 µmol/min/mg

B3: HdrB2 (Methanosarcina acetivorans C2A) (protein)
chain: MAKLSLFRGCIVPNRYPGIEKATKLCLQKLEVDAVDLPGASCCPAPGVFKSFDKATWLALASRNIVLSERMGRDILTVCNGCYGSLADANIELKNDPEMKACTNSCLKEIGMEYKGTAEVRHIIEFLYKELGPEKLKSFITTPLDLKVALHYGCHLIKPSKERNLGETEAPVFFDELVEATGAKSVDYTDKMMCCGAGGGVRSGHAAESLEMLEHKLACIRNAGVDCIVNACPFCHLQFDRGQLAVNEKFGTDYSIPVLHYSQLLGLALGFSPDELGIEQNAIQNIEFLAKIYEISAGLR
Question: How did the Km ([1]; HdrB2 alone) turn out when B3 was run?
Answer: 1100 ± 200 µM

Question: What about the Km ([2]; HdrB2 alone) of the same protein?
Answer: 1200 ± 300 µM

Question: And the Vmax ([2]; HdrB2 alone)?
Answer: 0.5 µmol/min/mg
